The target of assay [1] is dH5-0 (recombinant hemagglutinin 5 of H5N1 strain A/Vietnam/1203/04, stock as supplied by Protein Sciences) (influenza virus H5N1 strain A/Vietnam/1203/04). As to the kind of experiment: ELISA, immobilized H5 forms, Fn F4-5 in solution; normalized to cdH5-0.
Assay [2] shares this target.

Take “fourth and fifth finger domain of fibronectin (Fn F4-5) (from UniProt P02751 183-275)”: in assay [1], the Normalized affinity, kD (%) was 103%. Consider “tissue type plasminogen activator (tPA) (from UniProt P00750 36-562) (enzyme)”, for which, in assay [2], the Bmax turned out to be 0.32 and the Kd (as a rule, the concentration at which binding is half-saturated) was 96 nM.

Source of the values: US20090191228A1.
